This is an account of results in patent US20240116985A1 (published 2024).

Starred links: 1 amine or outer side, 2 acyl side, 3 side chain; linkers in the order of their positions; H or OH if unused. Positions of bridges follow the written chain, without caps; N, C: chain ends. Non-standard residues stand in square brackets, D forms with d. Primed or numbered codes have the meaning given here. PyrS2″ = (S)-3-amino-1-((pent-4-en-1-yloxy)carbonyl)pyrrolidine-3-carboxylic acid (stapling residue), C=CCCCOC(=O)N1CC[C@@](N[*:1])(C(=O)[*:2])C1; RdN(3) = (R)-4-(((allyloxy)carbonyl)(methyl)amino)-2-amino-2-methylbutanoic acid, stapling residue, C=CCOC(=O)N(C)CC[C@@](C)(N[*:1])C(=O)[*:2]; RdN″ = (R)-4-(((allyloxy)carbonyl)(methyl)amino)-2-amino-2-methylbutanoic acid (stapling residue), C=CCOC(=O)N(C)CC[C@@](C)(N[*:1])C(=O)[*:2]; B5(4) = 2,2-bis(4-pentenyl)glycine = 2-amino-2-(pent-4-en-1-yl)hept-6-enoic acid (stitching residue), C=CCCCC(CCCC=C)(N[*:1])C(=O)[*:2]; B5(6) = 2-amino-2-(pent-4-en-1-yl)hept-6-enoic acid (bis(4-pentenyl)glycine), stitching residue, C=CCCCC(CCCC=C)(N[*:1])C(=O)[*:2]; PyrS2 = (S)-3-amino-1-((pent-4-en-1-yloxy)carbonyl)pyrrolidine-3-carboxylic acid, C=CCCCOC(=O)N1CC[C@@](N[*:1])(C(=O)[*:2])C1; RdN = (R)-4-(((allyloxy)carbonyl)(methyl)amino)-2-amino-2-methylbutanoic acid, C=CCOC(=O)N(C)CC[C@@](C)(N[*:1])C(=O)[*:2]; B5(19) = 2-amino-2-(pent-4-en-1-yl)hept-6-enoic acid (bis(4-pentenyl)glycine), C=CCCCC(CCCC=C)(N[*:1])C(=O)[*:2]; B5(3) = 2,2-bis(4-pentenyl)glycine (stitching residue), C=CCCCC(CCCC=C)(N[*:1])C(=O)[*:2]; Phe(4-COOH) = N[C@@H](Cc1ccc(C(=O)O)cc1)C(=O)O; S7 = C[C@@](CCCCCC=[*:3])(N[*:1])C(=O)[*:2]; 2Nal = N[C@@H](Cc1ccc2ccccc2c1)C(=O)O; Bta = N[C@@H](Cc1csc2ccccc12)C(=O)O; αAllylPro = C=CC[C@@]1(C(=O)O)CCCN1; tBuAla = CC(C)(C)C[C@H](N)C(=O)O; 3Thi = N[C@@H](Cc1ccsc1)C(=O)O; Cit = NC(=O)NCCC[C@H](N)C(=O)O; S8 = C=CCCCCCC[C@](C)(N)C(=O)O; PyrS2(4) = not defined here; TfeGA″ = not defined here; hSer = N[C@@H](CCO)C(=O)O; Aib = CC(C)(N)C(=O)O

Experiment [1] concerns the target T1, full-length beta-Catenin (Uniprot ID P35222) (Homo sapiens (Human), UniProt P35222 2-781).
T1 construct: No tag is stated for the FP assay; also called bCat; B-Catenin
T1 sequence: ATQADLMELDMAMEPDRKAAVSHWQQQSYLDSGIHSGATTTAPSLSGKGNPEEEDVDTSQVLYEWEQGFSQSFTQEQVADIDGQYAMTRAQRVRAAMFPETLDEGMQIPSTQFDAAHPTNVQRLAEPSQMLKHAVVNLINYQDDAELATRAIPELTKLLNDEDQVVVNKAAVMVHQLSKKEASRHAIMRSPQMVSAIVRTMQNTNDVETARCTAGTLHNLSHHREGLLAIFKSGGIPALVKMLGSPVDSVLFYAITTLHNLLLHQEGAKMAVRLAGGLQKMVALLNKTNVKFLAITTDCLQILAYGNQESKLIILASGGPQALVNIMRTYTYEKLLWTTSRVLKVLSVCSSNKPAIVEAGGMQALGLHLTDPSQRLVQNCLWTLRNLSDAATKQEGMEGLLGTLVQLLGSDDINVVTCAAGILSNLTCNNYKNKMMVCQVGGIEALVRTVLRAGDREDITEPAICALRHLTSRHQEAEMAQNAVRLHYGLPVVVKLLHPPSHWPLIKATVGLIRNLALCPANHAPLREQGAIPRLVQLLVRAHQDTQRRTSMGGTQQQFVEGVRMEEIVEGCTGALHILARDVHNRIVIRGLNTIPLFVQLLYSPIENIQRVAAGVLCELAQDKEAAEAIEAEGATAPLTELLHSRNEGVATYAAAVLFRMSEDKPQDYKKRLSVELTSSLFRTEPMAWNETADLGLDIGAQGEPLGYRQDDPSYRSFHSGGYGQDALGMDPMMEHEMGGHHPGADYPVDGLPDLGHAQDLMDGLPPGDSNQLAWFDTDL
Briefly: fluorescence polarization competition; full-length beta-catenin with 5FAM-TCF4(10-53) probe as competitor. The procedure:
(§1) The plate was incubated protected from light for 60 minutes at 20° C. prior to read. Reads were performed on a CLARIOstar plate reader (BMG Labtech) in duplicate, and data were fitted to a 1:1 binding model with hill slope using an in-house script. All provided concentrations are final concentrations.
A general note: In fluorescence polarisation assays a small probe gives low polarisation when free and higher when bound to something large.

A further experiment concerns the target T2, B-cat-Halo (UniProt P35222 1-781).
T2 sequence (looked up): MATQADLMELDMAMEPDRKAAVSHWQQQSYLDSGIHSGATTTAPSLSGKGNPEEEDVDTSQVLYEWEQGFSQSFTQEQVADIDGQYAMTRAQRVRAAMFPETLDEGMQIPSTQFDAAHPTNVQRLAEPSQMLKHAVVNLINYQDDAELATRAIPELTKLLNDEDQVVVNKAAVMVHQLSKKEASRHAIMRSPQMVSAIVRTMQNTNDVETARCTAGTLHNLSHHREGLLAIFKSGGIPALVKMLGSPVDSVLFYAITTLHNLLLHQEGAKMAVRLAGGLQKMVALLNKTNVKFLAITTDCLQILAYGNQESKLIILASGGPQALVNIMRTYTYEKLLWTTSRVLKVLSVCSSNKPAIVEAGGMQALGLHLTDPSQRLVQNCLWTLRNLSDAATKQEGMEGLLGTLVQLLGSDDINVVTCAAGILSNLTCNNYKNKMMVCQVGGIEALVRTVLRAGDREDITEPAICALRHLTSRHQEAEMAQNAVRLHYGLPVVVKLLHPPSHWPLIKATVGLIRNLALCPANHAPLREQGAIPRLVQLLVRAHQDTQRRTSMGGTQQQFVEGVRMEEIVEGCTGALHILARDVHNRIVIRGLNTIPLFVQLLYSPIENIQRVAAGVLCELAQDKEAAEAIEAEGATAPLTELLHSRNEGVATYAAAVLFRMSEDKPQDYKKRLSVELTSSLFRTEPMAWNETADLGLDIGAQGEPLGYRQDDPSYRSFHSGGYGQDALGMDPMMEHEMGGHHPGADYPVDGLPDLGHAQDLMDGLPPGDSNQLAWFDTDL
Briefly: cell-based or functional assay.

Experiment [2] has as its target T3, full-length beta-Catenin (Uniprot ID P35222) (Homo sapiens (Human), UniProt P35222 2-781).
T3 construct: the AlphaScreen assay uses a Histidine (Nickel Chelate) detection kit, so a His tag is likely there; also called B-Catenin; bCat
T3 sequence: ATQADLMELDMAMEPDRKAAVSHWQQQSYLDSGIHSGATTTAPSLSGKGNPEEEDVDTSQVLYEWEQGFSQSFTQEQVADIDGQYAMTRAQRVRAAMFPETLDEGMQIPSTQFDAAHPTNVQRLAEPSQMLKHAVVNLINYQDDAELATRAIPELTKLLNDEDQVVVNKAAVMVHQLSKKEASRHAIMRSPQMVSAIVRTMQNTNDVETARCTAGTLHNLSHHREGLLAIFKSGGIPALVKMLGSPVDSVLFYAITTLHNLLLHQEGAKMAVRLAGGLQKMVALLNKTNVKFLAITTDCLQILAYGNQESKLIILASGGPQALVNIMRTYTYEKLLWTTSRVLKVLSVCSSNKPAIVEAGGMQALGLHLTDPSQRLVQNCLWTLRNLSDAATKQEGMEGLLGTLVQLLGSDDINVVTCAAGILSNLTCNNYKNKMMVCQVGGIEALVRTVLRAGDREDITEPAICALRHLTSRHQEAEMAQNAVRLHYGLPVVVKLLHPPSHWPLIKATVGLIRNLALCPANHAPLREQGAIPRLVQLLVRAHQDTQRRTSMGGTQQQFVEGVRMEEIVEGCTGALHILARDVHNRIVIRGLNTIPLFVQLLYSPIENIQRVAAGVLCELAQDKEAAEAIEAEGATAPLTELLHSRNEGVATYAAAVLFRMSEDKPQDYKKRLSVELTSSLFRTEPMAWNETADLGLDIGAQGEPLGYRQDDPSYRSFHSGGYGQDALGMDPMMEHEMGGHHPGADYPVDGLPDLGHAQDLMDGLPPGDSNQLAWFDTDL
Briefly: fluorescence polarization competition; full-length beta-catenin with 5FAM-TCF4(10-53) probe as competitor. The method, then:
as §1

Experiment [3] deals with T3, full-length beta-Catenin (Uniprot ID …). Briefly: AlphaScreen competition; full-length beta-catenin with biotin-TCF4(10-53) probe as competitor. The procedure:
Equal volume of the titrated peptide was added to the plate and incubated for 15 minutes at 20° C. Then 4 uL of donor and 4 uL acceptor beads at 10 ug/mL were added to the plate, for a 16 uL reaction pool and protected from light for 60 minutes at 20° C. prior to read. Reads were performed on a CLARIOstar plate reader (BMG Labtech) in duplicate, and data were fitted to a 1:1 binding model with hill slope using an in-house script. All provided concentrations are final concentrations.
On the technique in general: In Alpha technology, singlet oxygen from a donor bead excites a nearby acceptor bead.

B1: I-497 (peptide)
peptide: Ac-[αAllylPro]DA[B5(6)][hSer]EAAFQ[S8]F[Bta]Q-NH2
modifications: staple 1-4, 4-11; not fully specified; printed as Ac-PL3-Asp-Ala-B5-Hse-Glu-Ala-Ala-Phe-Gln-S8-Phe-BztA-Gln-NH2
notes: Stapled peptide; this is the second eluting HPLC peak (staple isomer composition)
With B1, the IC50 (as a rule, the concentration that inhibits the measured activity by half) in experiment [1] was 5 µM.

B2: I-498 (peptide)
peptide: Ac-[αAllylPro]DA[B5(6)][hSer]EAAFQ[S8]F[Bta]Q-NH2
modifications: staple 1-4, 4-11; not fully specified; printed as Ac-PL3-Asp-Ala-B5-Hse-Glu-Ala-Ala-Phe-Gln-S8-Phe-BztA-Gln-NH2
notes: Stapled peptide; this is the third eluting HPLC peak (staple isomer composition)
B2 registered an IC50 in experiment [1] of 5 µM. As for Ac-[αAllylPro]D[tBuAla][B5(3)]DQAAFN[PyrS2″][3Thi][Bta]H-NH2 (staple 1-4, 4-11) [I-839], the “NanoBRET Abs IC50” value with B-cat-Halo was determined as 41.9 µM. Turning to Ac-[αAllylPro]DA[B5(19)]DEAAFV[S8]F[2Nal]Q-NH2 (staple 1-4, 4-11, stapled peptide composition) [I-140], the EC50 (in general, the midpoint of the concentration-response curve) in experiment [2] was 2.27 µM; in experiment [3], 0.934 µM. For Ac-[Aib]DI[RdN]DEAAFQ[S7]FW-NH2 (staple 4-11, stapled peptide composition) [I-147], the results for the EC50 in experiment [2] and in experiment [3] were 1.64 µM and 0.328 µM, respectively. On to Ac-[αAllylPro]D[tBuAla][B5(3)]D[Phe(4-COOH)]AAFF[PyrS2][3Thi][Bta]Q-NH2 (staple 1-4, 4-11) [I-850], for which the “NanoBRET Abs IC50” value with B-cat-Halo amounted to 16.4 µM. Ac-[αAllylPro]D[tBuAla][B5(3)]DQAAFN[PyrS2″][3Thi][Bta]Q-NH2 (staple 1-4, 4-11) [I-838]: in the experiment with B-cat-Halo, the “NanoBRET Abs IC50” value came out at 17.4 µM. On the same count and under the same terms, under Ac-[αAllylPro]D[tBuAla][B5(3)]D[TfeGA″]AAFF[PyrS2(4)][3Thi][Bta]Q-NH2 (staple 1-4, 4-11; reading uncertain) [I-848] stands 7 µM. As for Ac-[αAllylPro]DA[B5(4)]DEAAFV[S8]FWA-NH2 (staple 1-4, 4-11, stapled (stitched) peptide composition) [I-135], the 50% effective concentration (EC50) stood at 1.87 µM in experiment [2] and 0.279 µM in experiment [3].

B3: I-154 (peptide)
peptide: ADIXDEAAFAXFWA
modifications: not fully specified; as printed: Ac-Ala-Asp-Ile-RdN-Asp-Glu-Ala-Ala-Phe-Ala-S7-Phe-Trp-Ala-NH2; N-terminal acetyl, C-terminal amide; RdN(4), S7(11); staple RdN-S7 by olefin metathesis
notes: stapled peptide
Regarding B3, the results for the EC50 in experiment [2] and in experiment [3] were 5 µM and 0.828 µM, respectively.

In the case of Ac-ADI[RdN(3)]DEAAFQ[S7]FWA-NH2 (staple 4-11, stapled peptide composition) [I-153], the values for the EC50 in experiment [2] and in experiment [3] were 2.14 µM and 0.153 µM, respectively. For Ac-ADI[RdN″]DEAAFA[S7]FWH-NH2 (staple 4-11, stapled peptide composition) [I-152], in that order: 5 µM and 0.752 µM. As for Ac-[αAllylPro]D[tBuAla][B5(3)]D[Cit]AAFN[PyrS2″][3Thi][Bta]H-NH2 (staple 1-4, 4-11) [I-841], in the experiment with B-cat-Halo, the “NanoBRET Abs IC50” value is 34.4 µM. For Ac-[αAllylPro]D[tBuAla][B5(3)]D[Cit]AAFN[PyrS2″][3Thi][Bta]Q-NH2 (staple 1-4, 4-11) [I-840], the “NanoBRET Abs IC50” value with B-cat-Halo amounted to 22.3 µM.
